Test results as given in patent publication US7205387B2, “Recombinant polypeptide useful for neurotrophin receptor mediated gene delivery and as neurotrophin agonist” (Agency for Science, Technology and Research, priority 2003, dated 2007).
Bridge positions count the residues as written; N and C are the ends. Ends that are not written are not given here.

B1: SPKR4NL1-2: chimeric protein: (SPKR)4 DNA-binding domain, α-helical linker, targeting domain with loops 1 and 2 of NGF (aa 17–67), His10 tag (protein)
chain: MGHHHHHHHHHHSSGHIEGRHMSPKRSPKRSPKRSPKRGGTYLSEDELKAAEAAFKRHNPTGSCSVSVWVGDKTTATDIKGKEVMVLGEVNINNSVFKQYFFETKCRDPNPVDSG
modifications: SPKR4NL1-2

Experiments:
[1] = test system: lumbar segment of the spinal cord; assay: Gene delivery in vivo, intrathecal injection, lumbar spinal cord; parameters: species or system rat; details: 3 μg pCAGluc, PEI600 N/P 5, peptide N/P 5, intralumbar, 3 days
Text: In vivo gene delivery was studied by intrathecal injections of adult Wistar rats (8 weeks old, 180–200 g). The rats were anesthetized by intraperitoneal injection of sodium pentobarbital. After the skin around L4–L5 was exposed, the gene delivery complex was slowly injected into the subarachnoid space using a syringe. A slight tail movement accompanied correct placement of the needle. After injection, the syringe was left in place for five minutes to limit diffusion caused by backflow pressure. Multiple injections were sometimes required to deliver the full volume of the complex. After injection, the skin was closed with surgical clips and the animals were kept warm until they recovered. […] The lumbar segment of the spinal cord and the lumbar dorsal root ganglia were excised. The tissues were homogenized in 100–400 μl of Reporter Lysis Buffer (Promega) depending on size and subjected to three freeze-thaw cycles. The lysates were centrifuged at 14000 g for 5 min at 4° C. The supernatant was tested for luciferase activity using the Luciferase Assay System (Promega) in a single-tube luminometer (Berthold Lumat LB 9507). The readings were normalized by the total protein content of the lysates, as measured by the DC Protein assay (Bio-Rad).

[2] = test system: Akt; assay: Phospho-Akt immunoblot in PC12 cells; format: cell-based, rat; details: 5 μM peptide, 20 min
Protocol: Immunoblotting experiments were conducted to test whether the chimeric polypeptides could, like NGF, induce autophosphorylation of TrkA and activation of its signal transduction pathways. PC12 cells were seeded in 6-well plates at a density of 2×10^6 cells/well and cultured in RPMI 1640 containing 0.5% FBS and 0.25% horse serum for 2 days. The low serum concentrations were necessary to reduce the basal levels of phosphorylation. The medium was refreshed two hours before beginning treatment. The cells were incubated with the polypeptides or NGF in serum-free medium for 15–20 min. The cells were then washed in PBS, lysed, and sonicated. The cell lysates were resolved by SDS-PAGE and transferred to a nitrocellulose membrane for immunoblotting. The primary antibodies used include Phospho-TrkA (Tyr490) antibody, Phospho-p44/p42 MAPK (Thr202/Tyr204) monoclonal antibody, and Phospho-Akt (Ser473) monoclonal antibody, all obtained from Cell Signaling Technology (Beverly, Mass., USA). Colorimetric detection was performed by standard techniques after using horse-radish peroxidase-conjugated secondary antibodies. In some experiments, TrkA tyrosine kinase inhibitors K-252a or AG879 (both from Calbiochem, La Jolla, Calif., USA) were used. In these cases, PC12 cells were incubated with 100 nM K-252a or 10 μM AG879 before addition of polypeptides or NGF.

[3] = test system: PC12 (TrkA and p75^NTR positive) cells; assay: Gene delivery in vitro (pCAGluc luciferase reporter), PC12 cells; format: cell-based, rat
Protocol: A PC12 (rat pheochromocytoma) cell line was obtained from ATCC (American Type Culture Collection, Manassas, Va., USA) and cultured in RPMI-1640 medium supplemented with 10% fetal bovine serum (FBS) and 5% horse serum. PC12 cells are known to express TrkA and p75^NTR receptors. A COS7 (African green monkey kidney fibroblast) cell line was obtained from ATCC and cultured in Dulbecco's modified Eagle's medium (DMEM) supplemented with 10% fetal bovine serum, 50 U/ml penicillin, and 50 μg/ml streptomycin. The cells were maintained in a 37° C., 5% CO2, humidified incubator.
To determine the transfection efficiencies of our nucleic acid delivery systems, we employ a reporter plasmid, pCAGluc (a gift from Yoshiharu Matsuura, National Institute of Infectious Diseases, Tokyo, Japan), encoding firefly luciferase under the control of the composite promoter, CAG. CAG comprises the chicken β-actin promoter and the cytomegalovirus immediate early enhancer.
TrkA-targeting gene delivery complexes were tested for transfection efficiency in vitro in PC12 (TrkA and p75^NTR positive) cells and COS7 (neurotrophin receptor negative) cells. The cells were grown to 50–70% confluency in microplate wells (24-, 48-, or 96-well plates). The gene delivery complexes were prepared according to specifications presented for each example. Transfection was accomplished by replacing the serum-enriched medium with half the usual volume of reduced-serum medium, Opti-MEM (Invitrogen), containing the gene delivery complexes. Where specifically mentioned, 100 μM of chloroquine was also added to help the complexes escape from endosomes. After four hours of incubation, the cells were restored to the normal medium volume and serum concentration, either by topping up with medium containing twice the usual serum concentration (RPMI-1640 with 20% FBS and 10% horse serum for PC12) or by completely replacing the medium.
One to two days after transfection, the cell culture medium was removed and the cells were rinsed in phosphate-buffered saline (PBS). Enough Reporter Lysis Buffer (Promega, Wisconsin, Md., USA) to cover the bottom surface was added to each well (50 μl/well for 48-well plates). After one freeze-thaw cycle, the lysates were tested for luciferase activity using the Luciferase Assay System (Promega) and a single-tube luminometer (Berthold Lumat L B 9507, Bad Wildbad, Germany). The total protein concentration of each lysate was determined using the DC Protein assay (Bio-Rad, Hercules, Calif., USA). The results were expressed in relative light units (RLU) per milligram of total protein.

[4] = test system: plasmid DNA; assay: Ethidium bromide displacement assay; format: binding; details: 0.8 μg DNA pre-mixed with ethidium bromide
Protocol: In this assay, the quenching of the fluorescence of ethidium bromide intercalated in DNA is used to measure DNA-binding and condensing ability. Ethidium bromide (153 μl of a 0.01% solution) was added to 96 μg of plasmid DNA and diluted with water to a final volume of 6 ml. In wells of a 96-well microplate, various amounts of polypeptide were placed in a volume of 50 μl, to which 50 μl of the DNA-ethidium bromide solution was added. After five minutes of mixing, 100 μl of water was added. The fluorescence reading was taken using wavelengths of 485 nm for excitation and 593 nm for emission on a SPECTRAFluor Plus microplate reader (TECAN, Maennedorf, Switzerland).

[5] = test system: PC12 cells; assay: PC12 neurite outgrowth assay; format: cell-based, rat; details: 8 μM, 3 days
Protocol: Chimeric polypeptides were examined for their ability to induce neurite outgrowth in PC12 cells. Polypeptides in a range of concentrations were added to PC12 cells cultured in serum-enriched RPMI-1640 medium. The cells were incubated for three days and photographed every 24 h.

[6] = test system: PC12 cells; assay: PC12 cell survival assay (MTT, serum-free medium); format: cell-based, rat; details: 8 μM, deprived of serum and NGF for 3 days
Protocol: Undifferentiated or differentiated (by 6-day treatment with 10 ng/ml NGF) PC12 cells seeded onto collagen-coated 96-well plates were exposed to serum-free RPMI-1640 medium containing either NGF or various concentrations of chimeric polypeptides. After 3–4 days of incubation, cell viability was measured by the standard MTT assay. Cell survival was expressed as a percentage of the viability of the NGF-treated control.

Molecule	transfection in spinal cord near the lumbar injection site relative to 10K control [1]	activation (phosphorylation) of Akt [2]	gene delivery at N/P ratio of 1 (in words) ([3]; 0.3 nmol peptide with 1 μg pCAGluc, 100 μM chloroquine)	transfection efficiency relative to a mixture of NL4 and 10K peptides ([3]; 1.5 nmol peptide per μg DNA (N/P ratio of 5), 100 μM chloroquine, 24 h) [times]	dose-response of transfection efficiency with increasing amount of peptide ([3]; 1 μg pCAGluc/well, 100 μM chloroquine)	N/P ratio at which ethidium bromide fluorescence dropped sharply (DNA condensation) [4]	neurite outgrowth [5]	transfection efficiency of complexes of polypeptide and DNA alone ([3]; no polycation)	transgene expression relative to PEI600 alone ([3]; triple complexes with PEI600, highest amount of SPKR4NL1-2 tested) [fold]	transfection efficiency relative to PLL without SPKR4NL1-2 ([3]; triple complexes with poly-L-lysine (MW 1000), chloroquine, optimal amount of SPKR4NL1-2) [times]	PC12 viability as % of maximum NGF-promoted survival rate [6] [%]
CTTTHTFVKALTMDGKQAAWRFIRIDTACKKKKKKKKKK (CTTTHTFVKALTMDGKQAAWRFIRIDTACKKKKKKKKKK; disulfide 1-29) [NL4-10K]	decreased relative to the 10K control	induced activation	modest gene delivery	110	increased markedly						
B1						about 10 N/P ratio	promotes neurite outgrowth	relatively weak transfection efficiencies	5000	1000	80
